Assays:
[1] = system: bovine aortic smooth muscle cells; experiment: [3H]-thymidine incorporation into smooth muscle cell DNA; format: cell-based; details: purification steps of HB-EHM from 8 L U-937 conditioned medium
Method: (§1) Conditioned medium was assayed for growth factor activity directly, as described below, using either fibroblasts (i.e., BALB/c mouse 3T3 cells), epithelial cells (i.e., human keratinocytes), or smooth muscle cells (i.e., bovine aortic smooth muscle cells, BASMC). Alternatively, CM was first fractionated by fast protein liquid chromatography (FPLC, Pharmacia, Piscataway, N.J.) by applying 500 ml of the CM to a TSK-heparin 5PW column (8×75 mm, TOSOHAAS, Philadelphia, Pa.). The column was washed with 10 column volumes of equilibration buffer (0.2M NaCl, 0.01M Tris-HCl, pH 7.5), and bound protein was eluted with a 40 ml linear gradient of 0.2-2M NaCl in 0.01M Tris-HCl , pH 7.4 at 1 ml/min. Fractions (2.5 ml) were tested for growth factor activity by measuring the effect of aliquots of the fractions on DNA synthesis in, or the proliferation of, BALB/c mouse 3T3 cells; such activity was monitored by assaying the incorporation of [^3 H]-thymidine into DNA and/or by measuring the increase in cell number. Measurement of DNA synthesis in BALB/c mouse 3T3 cells was performed as described by Shing et al. (223 Science 1296, 1984, hereby incorporated by reference). One unit of BALB/c mouse 3T3 stimulation activity was defined as the amount of growth factor required to stimulate half-maximal DNA synthesis in BALB/c mouse 3T3 cells under the conditions described in Shing et al. (supra). […]

[2] = system: EGF receptors on BASMC; experiment: Competitive [125I]EGF binding to bovine aortic smooth muscle cells
Method: Competitive binding assays were used to measure this interaction and were performed as follows.

[3] = Stability of growth-stimulatory activity to acid, heat and DTT (read out in BALB/c 3T3 [3H]-thymidine assay); format: physicochemical
Method: as §1, with “(supra). To measure DNA synthesis in bovine capillary endothelial cells, cells were trypsinized and re-plated sparsely (1×10^4 cells/well) with 400 μl of Dulbecco's modified Eagle's medium (DMEM, GIBCO, Grand Island, N.Y.) supplemented with 10% bovine calf serum (GIBCO, Grand Island, N.Y.) and antibiotics (100 units/ml penicillin and 100 μg/ml streptomycin sulfate, GIBCO, Grand Island, N.Y.) in 48-well plates (Costar, Cambridge, Mass.). After 24 hours of incubation, the medium was replaced with the same volume of DMEM supplemented with 2% bovine calf serum, antibiotics, 1 μM thymidine and 0.5% bovine serum albumin. After 24 hours of incubation, the test samples were added to the wells. Eighteen hours later, [^3 H]-thymidine (0.6 uCi/well, New England Nuclear, Wilmington, Del.) was added. After an additional 5 hours, each plate was treated by the same procedure as used to harvest the BALB/c mouse 3T3 cells to measure the incorporation of [^3 H]-thymidine into the DNA of the cells. To measure DNA synthesis in bovine aortic smooth muscle cells (from Dr. H. Weich, Children's Hospital, Boston), the cells were trypsinized and re-plated sparsely (1×10^4 cells/well) with 400 μl of DMEM supplemented with 10% Colorado calf serum (Colorado Serum Company) and antibiotics (100 units/ml penicillin and 100 μg/ml streptomycin sulfate, GIBCO, Grand Island, N.Y.) in 48-well plates.” for “(supra).”

B1: HB-EHM: novel heparin binding growth factor with EGF-homologous segment, purified from U-937 lymphoma cell conditioned medium, about 22 kD (protein)
chain: RVTLSSKPQALATPNKEEHGKRKKKGKGLGKKRDPCLRKYKDFCIHGECKYVKELRAPSCICHPGYHGERCHGLS
modifications: O-linked glycosylation (suggested by O-glycanase treatment; the threonines predicted at positions 2 and 12 of the form first sequenced were not detected in protein sequencing)
- Maximal Stimulation [1]: 0.5 ng/mL
- 50% inhibition of [125I]EGF binding ([2]; BASMC, 6-well plates): 63 pg/mL
- binding to EGF receptors on SMC ([2]; purified HB-EHM): found to bind
- growth-stimulatory activity after exposure to DTT ([3]; 5 mM DTT for 2 hours, 3T3 [3H]-thymidine readout): destroyed completely
- activity after acid treatment with glycine-HCl ([3]; 0.1M glycine-HCl, pH 2.5 for 2 hours): not lost
- growth-stimulatory activity after heating ([3]; 90° C. for 5 minutes, 3T3 [3H]-thymidine readout): not destroyed
- growth-stimulatory activity after exposure to pH 2.5 ([3]; pH 2.5 for 2 hours, 3T3 [3H]-thymidine readout): resistant
